Molecular target: the molecule itself
Experiment: SEC; purified full-length MBP-NLRP1, Superose 6 increase (10/300) GL, 0.5 ml/min, buffer A (25 mM Hepes pH 7.5, 150 mM NaCl, 0.5 mM TCEP, 10% glycerol); fractions checked by SDS-PAGE

B1: MBP-NLRP1 M1184V (full length) (natural protein, human, UniProt Q9C000 1-1473, looked up)
chain: MAGGAWGRLACYLEFLKKEELKEFQLLLANKAHSRSSSGETPAQPEKTSGMEVASYLVAQYGEQRAWDLALHTWEQMGLRSLCAQAQEGAGHSPSFPYSPSEPHLGSPSQPTSTAVLMPWIHELPAGCTQGSERRVLRQLPDTSGRRWREISASLLYQALPSSPDHESPSQESPNAPTSTAVLGSWGSPPQPSLAPREQEAPGTQWPLDETSGIYYTEIREREREKSEKGRPPWAAVVGTPPQAHTSLQPHHHPWEPSVRESLCSTWPWKNEDFNQKFTQLLLLQRPHPRSQDPLVKRSWPDYVEENRGHLIEIRDLFGPGLDTQEPRIVILQGAAGIGKSTLARQVKEAWGRGQLYGDRFQHVFYFSCRELAQSKVVSLAELIGKDGTATPAPIRQILSRPERLLFILDGVDEPGWVLQEPSSELCLHWSQPQPADALLGSLLGKTILPEASFLITARTTALQNLIPSLEQARWVEVLGFSESSRKEYFYRYFTDERQAIRAFRLVKSNKELWALCLVPWVSWLACTCLMQQMKRKEKLTLTSKTTTTLCLHYLAQALQAQPLGPQLRDLCSLAAEGIWQKKTLFSPDDLRKHGLDGAIISTFLKMGILQEHPIPLSYSFIHLCFQEFFAAMSYVLEDEKGRGKHSNCIIDLEKTLEAYGIHGLFGASTTRFLLGLLSDEGEREMENIFHCRLSQGRNLMQWVPSLQLLLQPHSLESLHCLYETRNKTFLTQVMAHFEEMGMCVETDMELLVCTFCIKFSRHVKKLQLIEGRQHRSTWSPTMVVLFRWVPVTDAYWQILFSVLKVTRNLKELDLSGNSLSHSAVKSLCKTLRRPRCLLETLRLAGCGLTAEDCKDLAFGLRANQTLTELDLSFNVLTDAGAKHLCQRLRQPSCKLQRLQLVSCGLTSDCCQDLASVLSASPSLKELDLQQNNLDDVGVRLLCEGLRHPACKLIRLGLDQTTLSDEMRQELRALEQEKPQLLIFSRRKPSVMTPTEGLDTGEMSNSTSSLKRQRLGSERAASHVAQANLKLLDVSKIFPIAEIAEESSPEVVPVELLCVPSPASQGDLHTKPLGTDDDFWGPTGPVATEVVDKEKNLYRVHFPVAGSYRWPNTGLCFVMREAVTVEIEFCVWDQFLGEINPQHSWMVAGPLLDIKAEPGAVEAVHLPHFVALQGGHVDTSLFQVAHFKEEGMLLEKPARVELHHIVLENPSFSPLGVLLKMIHNALRFIPVTSVVLLYHRVHPEEVTFHLYLIPSDCSIRKAIDDLEMKFQFVRIHKPPPLTPLYMGCRYTVSGSGSGMLEILPKELELCYRSPGEDQLFSEFYVGHLGSGIRLQVKDKKDETLVWEALVKPGDLMPATTLIPPARIAVPSPLDAPQLLHFVDQYREQLIARVTSVEVVLDKLHGQVLSQEQYERVLAENTRPSQMRKLFSLSQSWDRKCKDGLYQALKETHPHLIMELWEKGSKKGLLPLSS
notes: NLRP1, human, isoform 1, residues 1-1473, codon-optimized, natural variant M1184V; More autocleaved between F1212 and S1213 than the wt; source: Sf9 insect cells, purified (MBPTrap, SEC); not shown: MBP, N-terminal, kept
B1: binds.
